Assay [1] concerns the target T1, CD22抗原 (CD22 on Raji human lymphoma cells) (human, UniProt P20273 20-847).
T1 construct: whole, on cells; The assays are on Raji cells; also called Raji人淋巴瘤细胞; Raji细胞
T1 sequence (looked up): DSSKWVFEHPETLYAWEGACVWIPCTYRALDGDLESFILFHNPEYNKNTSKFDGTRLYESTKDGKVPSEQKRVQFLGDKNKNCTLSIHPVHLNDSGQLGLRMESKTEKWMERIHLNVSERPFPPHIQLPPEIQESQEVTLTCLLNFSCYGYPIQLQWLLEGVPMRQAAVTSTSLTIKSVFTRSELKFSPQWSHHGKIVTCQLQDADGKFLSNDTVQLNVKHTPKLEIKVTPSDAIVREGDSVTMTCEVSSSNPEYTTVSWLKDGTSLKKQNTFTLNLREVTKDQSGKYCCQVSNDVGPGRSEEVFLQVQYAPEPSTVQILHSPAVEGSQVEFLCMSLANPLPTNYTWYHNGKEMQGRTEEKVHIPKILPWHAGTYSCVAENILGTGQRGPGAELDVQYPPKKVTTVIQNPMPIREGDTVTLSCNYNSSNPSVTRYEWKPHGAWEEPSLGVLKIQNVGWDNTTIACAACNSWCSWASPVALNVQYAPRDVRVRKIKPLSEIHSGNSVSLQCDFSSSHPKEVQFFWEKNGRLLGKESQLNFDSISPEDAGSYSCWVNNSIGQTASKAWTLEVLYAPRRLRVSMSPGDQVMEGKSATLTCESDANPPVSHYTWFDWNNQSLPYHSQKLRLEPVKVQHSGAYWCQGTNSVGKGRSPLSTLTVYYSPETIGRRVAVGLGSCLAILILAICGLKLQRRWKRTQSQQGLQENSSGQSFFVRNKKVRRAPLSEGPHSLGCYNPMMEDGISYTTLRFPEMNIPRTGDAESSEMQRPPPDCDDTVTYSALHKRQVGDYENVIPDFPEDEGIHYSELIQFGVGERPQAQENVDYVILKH
Put plainly: flow cytometry on Raji human lymphoma cells, four purified batches of different production and storage time.

Assay [2] concerns the target T1, CD22抗原 (CD22 on Raji human lymphoma …). Put plainly: competitive flow cytometry on Raji cells; unlabelled murine parent antibody as competitor of its FITC conjugate.

These results are taken from patent CN1542019A (CHINA ANTIBODY PHARMACY CO LTD, dated 2004).

Where a chain is given by its changes, count along the chain named.

B1: 嵌合抗体SM03 (chimeric anti-CD22 antibody SM03, human IgG1/human Kappa, variable regions modified at the N- and C-termini) (antibody, V domains shown)
VH: QVQLQESGGGLVKPGGSLKLSCAASGFAFSIYDMSWVRQWPEKRLEWVAYISSGGGTTYYPDTVKGRFTISRDNAKNTLYLQMSSLKSEDTAMYYCARHSGYGSSYGVLFAYWGQGTLVTVSS
VL: DIQLTQTTSSLSASLGDRVTISCRASQDISNYLNWYQQKPDGTVKLLIYYTSILHSGVPSRFSGSGSGTDYSLTISNLEQEDFATYFCQQGNTLPWTFGGGTKLEIKR
notes: Expressed in SP2/0 cells, purified on Protein A; also called 嵌合单克隆抗体SM03; SM03试产第一批抗体
Take B1: the binding result in assay [1] is “binds”.

B2: 嵌合抗体SM03的鼠源母抗体 (murine parent antibody of SM03) (antibody, V domains shown)
VH: B1 VH with Q1E, Q5V, S123A
VL: DIQMTQTTSSLSASLGDRVTISCRASQDISNYLNWYQQKPDGTVKLLIYYTSILHSGVPSRFSGSGSGTDYSLTISNLEQEDFATYFCQQGNTLPWTFGGGTKLEIK
notes: Whole mouse hybridoma antibody (mouse IgG heavy chain, kappa light chain by the cloning primers); also called 鼠源抗体; FITC-鼠源母抗体偶联物
For B2, the binding result in assay [2] is “binds”.
